Target: T1, human CD3e/d (human, UniProt P07766 23-126; P04234 22-105)
T1 construct: Bought soluble protein; also called hCD3e/d; human CD3/ed (Sino CT038-H2508H)
Assay: SPR (Carterra LSA), mAb on chip
Procedure: High-throughput surface plasmon resonance (SPR) coupled kinetic experiments were performed on a Carterra LSA® instrument equipped with an HC-30M chip type (Carterra, USA). The instrument uses two microfluidic modules, a single-flow cell (SFC) and a 96 printhead, to deliver samples to the chip surface via back-and-forth cycling of a fixed sample volume. An up to 384-ligand array is generated by docking the MFC onto each of the four nested print block locations in a serial manner.
The purified mAbs were immobilized on a Carterra LSA® HC-30M chip by direct coupling. The chip surface was first activated by flowing a freshly prepared 1:1:1 activation mix of 100 mM MES pH 5.5, 100 mM S-NHS, 400 mM EDC for 7 min. mAbs diluted to 10 μg/mL in 10 mM NaOAc pH 4.25+0.01% TWEEN®20 were then injected and printed onto the chip surface simultaneously using the MFC printhead for 10 min. Finally, the chip surface was quenched by flowing 1 M ethanolamine for 7 min (to block the excess reactive esters), followed by 2 wash steps of 15 s each in 25 mM MES pH 5.5. In addition to expressed and purified mAbs, relevant benchmarks and negative control mAbs were also printed on the chip surface.
The data were analyzed using the Carterra Kinetics analysis software. Briefly, the data were referenced with the interstitial reference spots and double-referenced to a buffer cycle, and then fit globally to a 1:1 Langmuir binding model to determine their apparent association (ka) and dissociation (kd) kinetic rate constants and binding affinity constants (KD).

T1 sequence (P07766 23-126, chain 1 of 2): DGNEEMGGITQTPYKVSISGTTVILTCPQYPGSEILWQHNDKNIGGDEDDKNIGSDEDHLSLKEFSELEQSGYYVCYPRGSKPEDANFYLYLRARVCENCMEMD
T1 sequence (P04234 22-105, chain 2 of 2): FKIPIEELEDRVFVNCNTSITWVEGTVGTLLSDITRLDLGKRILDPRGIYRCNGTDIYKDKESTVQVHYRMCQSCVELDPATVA

Kd [nM]	Binder
25	mAb 228 (antibody, V domains shown, VH and VL only) VH: EVQLLESGGGLVQPGGSLRLSCAASGFTFSNYAMNWVRQAPGKGLEWVSTISGSGGGKYYADSVKGRFTISRDNSKNTLYLHMNSLRAEDTAVYYCAKDPVQDRYYFYYYYMDVWGKGTTVTVSS VL: EIVLTQSPDFQSVTPKEKVTITCRASQSIGSSLHWYQQKPDQSPKLLIKYASQSISGVPSRFSGSGSGTDFTLTINSLEAEDAAAYYCHQSSSLPHTFGQGTKLEIK
18	mAb 240 (antibody, V domains shown, VH and VL only) VH: QGKLVESGGGVVQPGRSLRLSCVASGFTFSGYGMHWVRQAPNKGLEWVAIIYYDGKNKYYADSVKGRFTISRDNSKNTLYLQLNSLRAEDTAVYYCVRGPGYNWFDPWGQGTLVTVSS VL: EIVLTQSPDFQSVTPKEKVTITCRASQNIGSSLHWYQQKPDQSPKLLIKHASQSFSGVPSRFSGSGSGTDFTLTINSLEAEDAATYYCHQSSSLPYTFGQGTKLEIK
18	mAb 230 (antibody, V domains shown, VH and VL only) VH: EVQLLESGGGLVQPGGSLRLSCAASGFTFSSYAMSWVRQAPGKGLEWVSSISGSGGSRYYADSVKGRFTISRDNSKNTLYLQMNSLRAEDTAVYYCAKDPVQDRYYFYYYYMDVWGKGTTVTVSS VL: EIVLTQSPDFQSVTPKEKVTITCRASQSIGSSLHWYQQKPDQSPKLLIKYASQSISGVPSRFSGSGSGTDFTLTINSLEAEDAAAYYCHQSSSLPHTFGQGTKLEIK
4.83	mAb 172 (antibody, V domains shown, VH and VL only) VH: EVQLVESGGGLVQPGRSLRLSCTTSGFTFDDYTMHWVRQVPGKGLEWVSDISWNSGSVGYADSVKGRFTISRDNAKNSLYLQMNSLRAEDTALYYCVKDSSGYGHYFHYYMDVWGKGTTVTVSS VL: DIQMTQSPSSLSASVGDRVTITCRASQSISNYLNWYQVKPGKAPKVLIYAASSLQSGVPSRFSGSGSGTDFTLTISSLQPEDFVSYYCHQSYNAPITFGQGTRLESK
7.72	mAb 179 (antibody, V domains shown, VH and VL only) VH: EVQLVESGGGLVQPGRSLRLSCAASGFTFDDYTMHWVRQTPGKGLEWVSDISWNSGSIGYADSVKGRFTISRDNAKNTLYLQMNSLRAEDTALYYCVKDSSGYGHYLYYYMDVWGKGTTVTVSS VL: DIQMTQSPSSLSASVGDRVTITCRASQSIRNYLNWYQQSPGRAPKLLIFSASSLQSGVPSRFSGSGSGTDFTLTISSLQPEDFVTYYCQQRYSTPITFGQGTRLEIK
0.992	mAb 178 (antibody, V domains shown, VH and VL only) VH: EVQLVESGGGLVQPGRSLRLSCAASGFTFDDYTMHWVRQAPGKGLEWVSDISWNSGTIGYADSVKGRFTISRDNAKNSLYLQMNSLRAEDTALYYCVKDSSGYGHYYKYYMDVWGKGTTVTVSS VL: DIQMTQSPSSLSASVGDRVTITCRASQSISNYLNWYQQKAGKVPKVLIYGSSSLQSGVPSRFSGSGSGTDFTLTISSLQPEDFASYYCQQTYSSPLTFGGGTKVDFK
7.11	mAb 173 (antibody, V domains shown, VH and VL only) VH: EVQLVESGGGLVQPGRSLRLSCAASGFTFDDYTMHWVRQVPGKGLEWVSDISWNSGSVGYADSVKGRFTISRDNAKNSLYLQMNSLRAEDTALYYCVKDSSGYGHYFHYYMDVWGKGTTVTVSS VL: DIQMTQSPSSLSASVGDRVTITCRASQSISNYLNWYQVKPGKAPKVLIYAASSLQSGVPSRFSGSGSGTDFTLTISSLQPEDFVSYYCHQSYNTPITFGQGTRLEIK
3.49	mAb 176 (antibody, V domains shown, VH and VL only) VH: EVELVESGGGLVQPGRSLRLSCAASGFKFDDYTMHWVRLPPGKGLEWVSGISWNSGTIDYGDSVKGRFTISRDNAKNSLYLQMNSLRVEDTALYYCAKDTSGYGHYFYYYMDVWGKGTTVTVSS VL: DIQMTQSPSSLSASIGDRVSITCRTSQIINNYLNWYQQKPGKAPKVLIYSASSLQSGVPSRFSGSGSGTDFTLTINSLQPEDFATYYCQQSYNFPITFGQGTRLELK
41.1	mAb 177 (antibody, V domains shown, VH and VL only; The printed VL holds a letter 'U') VH: EVQLVESGGGLVQPGMSLRLSCAASGFTFDDYTMHWVRQSPGKGLEWVAGISWNSGTIGYGDSMKGRFTISRDNAKNSLDLQMNSLRVEDTALYYCAKDTSGYGHYYYYFMDVWGKGTTVTVSS VL: DIQMTQSPSSLSASIGDRVSITCRTSQIINNYLNWYQQKPGKAPKLLIYSASSLQSGVPSRFSGSGSGTDFTLTLSSLQPEDFATYFCQQSYNFPITFGQGTRLELK
18.4	mAb 171 (antibody, V domains shown, VH and VL only) VH: EVQLVESGGGLVQPGRSLRLSCAASGFTFADYTMHWVRQAPGQGLEWVSGISWNSGSIDYADSVKGRFIISRDNAKKTLYLQMNSLRAEDTALYYCAKDSSGYGHYYFYYLDVWGKGTTVTVSS VL: EIVMTQSPATLSVSPGERATLSCRASQSVSSNLAWYQQKPGQAPRLLIYSTSTRATGIPARFSGSRSGTEFTLTISSLQSEDSAVYYCQQYNNWPHFGQGTRLEIK
6.26	mAb 167 (antibody, V domains shown, VH and VL only) VH: EVHLVESGGGLVQPGRSLRLSCAASGFTFDDYAMHWVRQAPGKGLEWVSGISWNSGTIGYADSVKGRFTISRDNAKNSLYLEMNSLRAEDTALYYCAKDSSGYGHYYHYYIDVWGTGTTVTVSS VL: EIVMTQSPATLSVSPGGRATLSCRASQSVGSNLAWYQQKPGQAPRLLIYDASTRATGIPARFRGSGSGTEFTLTISGLQSEDFAVYYCQLYYNWPHFGQGTRLEIK
186	mAb 128 (antibody, V domains shown, VH and VL only) VH: EVQLVESGGGLVQPGRSLRLSCAASGFTFDDYTMHWVRQAPGKGLEWVSGISWNSGSIGYADSVKGRFTISRDNAKNSLYLQMNSLRAEDTALYYCAKDSSGYGYYYYYSMDVWGKGTTVTVSS VL: EIVMTQSPATLSVSPGERATLSCRASQSVSSNLAWYQQKPGQAPRLLIYGASTRATGIPARFSGSGSGTEFTLTISSLQSEDFAVYYCQLYYNWPHFGQGTRLAIK
9.72	mAb 126 (antibody, V domains shown, VH and VL only) VH: EVQLVESGGGLVQPGRSLRLSCAASGFTFNDYTMHWVRQVPGKGLEWVSGISWNSGSIDYADSVKGRFTISRDNAKNSLYLQMNSLRAEDTALYYCAKDSSGYGYYYYYYMDVWGKGTTVTVSS VL: EIVMTQSPATLSVSPGERATLSCRASQSVSINLAWYQQKPGQAPRLLIYGASTRATGIPARFSGSGSGTEFTLTISSLQSEDFAVYYCQLYHNWPHFGQGTRLEIK
21	mAb 121 (antibody, V domains shown, VH and VL only) VH: EVQLVESGGGLVQPGRSLRLSCATSGFTFADYTMHWVRQAPGKGLEWVSGISWNSGSIDYADSVKGRFTISRDNAKKSLYLQMNSLRAEDTALYFCAKDSSGYGHYYFYYLDVWGKGTTVTVSS VL: EIVMTQSPGTLSVSPGKRATLSCRASQSVSSNLAWYQQKPGQGPRLLIYSTSTRATGIPARFSGSGSGTEFTLTISSLQSEDSAVYYCQHYNNWPHFGQGTRLEIK
10.3	mAb 158 (antibody, V domains shown, VH and VL only) VH: EVQLVESGGGLVQPGRSLRLSCAASGFTFADYTMHWVRQVPGKGLEWVSGISWNSGSVDYADSVKGRFTISRDNAKKTLYLQMNSLRAEDTALYYCAKDSSGYGHYYFYYLDVWGKGTTVTVSS VL: EIVMTQSPATLSVSPGERATLSCRATQSVSSNLAWYQQKPGQAPRLLIYSTSTRATGIPARFSGSRSGTEFTLTISSLQSEDSAVYYCQQYNNWPHFGQGTRLEIK
101	mAb 118 (antibody, V domains shown, VH and VL only) VH: EVQLVESGGGLVQPGRSLRLSCAASGFTFDDYTMHWVRQAPGKGLEWVSGISWNSGSIGYADSVKGRFTISRDNAKNSLYLQMNSLRAEDTALYYCSKDSSGYGYYLNYSLDVWGKGTTVTVSS VL: not shown
15.2	mAb 160 (antibody, V domains shown, VH and VL only) VH: EVQLVESGGGLVQPGRSLRLSCAVSGFTFNDYTMHWVRQVPGKGLEWVSGISWNSGSIGYADSVKGRFTISRDNAKNSLYLQMNSLRAEDTALYFCAKDSSGYGHYYYYYMDVWGRGTTVTVSS VL: EIVMTQSPATLSVSPGERATLSCRASQSVRKNLAWYQQKPGQAPRLLIYGASTRATGIPARFSGSGSGTEFTLTISSLQSEDFAVYYCQLYNNWPHFGQGTRLEIK
24.1	mAb 161 (antibody, V domains shown, VH and VL only) VH: EVQLVESGGGLVQPGRSLRLSCAASGITFADYTMHWVRQAPGKGLEWVSGISWNSGSIDYADSVKGRFTISRDNAKKTLYLQMNRLRAEDTALYYCAKDSSGYGHYYFYYLDVWGKGTTVTVSS VL: EIVMTQSPATLSVSPGERATLSCRASQSVSNNLAWYQQKPGQAPRLLIYSTSTRATGIPARFSGSRSGTEFTLTISSLQSEDSAVYYCQQYNNWPHFGQGTRLEIK
19.4	mAb 162 (antibody, V domains shown, VH and VL only) VH: EVQLVESGGGLVQPGRSLRLSCAASGFTFDNYAMHWVRQAPGKGLEWVSGISWNSGSIGYADSVKGRFTISRDNAKNSLYLELNSLRAEDTALYYCAKDSSGYGYYYNYYMDVWGKGTTVTVSS VL: EIVMTQSPATLSVSPGERATLSCRASQSVRSNLAWYQQKPGQAPRLLIYGASTRATGIPAKFSGSGSGTEFTLTISSLQSEDFAVYYCQYYYNWPHFGQGTRLEIK
71.9	mAb 170 (antibody, V domains shown, VH and VL only) VH: EVQLVESGGGLVRPGRSLRLSCAASGFTFDDYTMHWVRQAPGKGLEWVSGISWNSGSIGYADSVKGRFTISRDNAKNSLYLQMNSLRAEDTALYYCSKDSSGYGYYLNYSLDVWGKGTTVTVSS VL: not shown

Reference: US20230295310A1 (ABCELLERA BIOLOGICS, published 2023)
